Data taken from article PMC7728815, “Substrate-binding destabilizes the hydrophobic cluster to relieve the autoinhibition of bacterial ubiquitin ligase IpaH9.8” (Communications Biology, 2020).

Experiments:
[1] = target: the molecule itself; assay: native gel or EMSA; Native-PAGE of IpaH9.8 and IpaH9.8-C337A under reducing and non-reducing conditions
[2] = target: T1, human guanylate-binding protein 1 (hGBP1), full-length (human, UniProt P32455 1-592, NT-647-NHS label (in the MST assay only)); assay: MST; 75 nM NT-647-NHS-labeled hGBP1 in PBS pH 7.4; IpaH9.8 titrated in, 30 min at room temperature; Monolith NT.Automated; conditions: both partners purified
T1 construct: full-length in the crystallized complex; in MST it was fluorescently labelled (NT-647-NHS) and no nucleotide is mentioned
T1 sequence (looked up): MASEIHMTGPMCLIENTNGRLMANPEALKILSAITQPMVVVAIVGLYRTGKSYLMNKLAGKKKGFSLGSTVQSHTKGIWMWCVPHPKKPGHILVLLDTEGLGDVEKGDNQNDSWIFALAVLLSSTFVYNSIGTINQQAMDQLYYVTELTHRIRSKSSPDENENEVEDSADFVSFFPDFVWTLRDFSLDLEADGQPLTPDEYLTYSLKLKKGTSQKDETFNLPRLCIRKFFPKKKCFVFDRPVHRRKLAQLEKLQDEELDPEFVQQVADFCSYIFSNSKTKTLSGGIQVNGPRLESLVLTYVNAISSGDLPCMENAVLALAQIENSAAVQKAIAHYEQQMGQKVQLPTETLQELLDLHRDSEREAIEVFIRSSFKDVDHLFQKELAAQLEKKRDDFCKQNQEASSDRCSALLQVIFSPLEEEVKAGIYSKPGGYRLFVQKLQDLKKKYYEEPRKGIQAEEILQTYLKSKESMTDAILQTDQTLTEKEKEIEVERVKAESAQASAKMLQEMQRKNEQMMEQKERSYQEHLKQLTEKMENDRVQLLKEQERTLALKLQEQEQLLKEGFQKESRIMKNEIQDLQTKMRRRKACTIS

[3] = target: T1, human guanylate-binding protein 1 …; assay: crystal structure; 0.3 mM IpaH9.8^LRR (22–244) mixed with 0.3 mM full-length hGBP1 and 5 mM GDP; 3.5 M NaCl, 0.1 M sodium citrate pH 6.5, 20 °C; space group P6122, one heterodimer in the asymmetric unit; conditions: both partners purified

B1: IpaH9.8 (wild type, Shigella flexneri) (enzyme)
chain: MLPINNNFSLPQNSFYNTISGTYADYFSAWDKWEKQALPGEERDEAVSRLKECLINNSDELRLDRLNLSSLPDNLPAQITLLNVSYNQLTNLPELPVTLKKLYSASNKLSELPVLPPALESLQVQHNELENLPALPDSLLTMNISYNEIVSLPSLPQALKNLRATRNFLTELPAFSEGNNPVVREYFFDRNQISHIPESILNLRNECSIHISDNPLSSHALPALQRLTSSPDYHGPRIYFSMSDGQQNTLHRPLADAVTAWFPENKQSDVSQIWHAFEHEEHANTFSAFLDRLSDTVSARNTSGFREQVAAWLEKLSASAELRQQSFAVAADATESCEDRVALTWNNLRKTLLVHQASEGLFDNDTGALLSLGREMFRLEILEDIARDKVRTLHFVDEIEVYLAFQTMLAEKLQLSTAVKEMRFYGVSGVTANDLRTAEAMVRSREENEFTDWFSLWGPWHAVLKRTEADRWAQAEEQKYEMLENEYPQRVADRLKASGLSGDADAEREAGAQVMRETEQQIYRQLTDEVLALRLPENGSQLHHS
notes: IpaH9.8, bacterial E3 ubiquitin ligase of S. flexneri; the wild-type gene was synthesised and cloned as 'IpaH9.8' into pET28M; No tag cleavage is described although the vector has a TEV site; also called IpaH9.8-WT; wild-type IpaH9.8
binding result [1]: binds | binding result [2]: binds

B2: IpaH9.8-R166A (enzyme)
chain: MLPINNNFSLPQNSFYNTISGTYADYFSAWDKWEKQALPGEERDEAVSRLKECLINNSDELRLDRLNLSSLPDNLPAQITLLNVSYNQLTNLPELPVTLKKLYSASNKLSELPVLPPALESLQVQHNELENLPALPDSLLTMNISYNEIVSLPSLPQALKNLRATANFLTELPAFSEGNNPVVREYFFDRNQISHIPESILNLRNECSIHISDNPLSSHALPALQRLTSSPDYHGPRIYFSMSDGQQNTLHRPLADAVTAWFPENKQSDVSQIWHAFEHEEHANTFSAFLDRLSDTVSARNTSGFREQVAAWLEKLSASAELRQQSFAVAADATESCEDRVALTWNNLRKTLLVHQASEGLFDNDTGALLSLGREMFRLEILEDIARDKVRTLHFVDEIEVYLAFQTMLAEKLQLSTAVKEMRFYGVSGVTANDLRTAEAMVRSREENEFTDWFSLWGPWHAVLKRTEADRWAQAEEQKYEMLENEYPQRVADRLKASGLSGDADAEREAGAQVMRETEQQIYRQLTDEVLALRLPENGSQLHHS
notes: IpaH9.8 of S. flexneri with Arg166 changed to alanine; mutants made by PCR-based mutagenesis; likely the same as m1; also called IpaH9.8 mutant R166A
binding result [2]: binds

B3: IpaH9.8-C337A (enzyme)
chain: MLPINNNFSLPQNSFYNTISGTYADYFSAWDKWEKQALPGEERDEAVSRLKECLINNSDELRLDRLNLSSLPDNLPAQITLLNVSYNQLTNLPELPVTLKKLYSASNKLSELPVLPPALESLQVQHNELENLPALPDSLLTMNISYNEIVSLPSLPQALKNLRATRNFLTELPAFSEGNNPVVREYFFDRNQISHIPESILNLRNECSIHISDNPLSSHALPALQRLTSSPDYHGPRIYFSMSDGQQNTLHRPLADAVTAWFPENKQSDVSQIWHAFEHEEHANTFSAFLDRLSDTVSARNTSGFREQVAAWLEKLSASAELRQQSFAVAADATESAEDRVALTWNNLRKTLLVHQASEGLFDNDTGALLSLGREMFRLEILEDIARDKVRTLHFVDEIEVYLAFQTMLAEKLQLSTAVKEMRFYGVSGVTANDLRTAEAMVRSREENEFTDWFSLWGPWHAVLKRTEADRWAQAEEQKYEMLENEYPQRVADRLKASGLSGDADAEREAGAQVMRETEQQIYRQLTDEVLALRLPENGSQLHHS
notes: IpaH9.8 of S. flexneri with the active cysteine changed (C337A); mutants made by PCR-based mutagenesis; likely the same as m1
binding result [1]: binds

B4: IpaH9.8^LRR (22–244), LRR domain of IpaH9.8 (domain or fragment)
chain: TYADYFSAWDKWEKQALPGEERDEAVSRLKECLINNSDELRLDRLNLSSLPDNLPAQITLLNVSYNQLTNLPELPVTLKKLYSASNKLSELPVLPPALESLQVQHNELENLPALPDSLLTMNISYNEIVSLPSLPQALKNLRATRNFLTELPAFSEGNNPVVREYFFDRNQISHIPESILNLRNECSIHISDNPLSSHALPALQRLTSSPDYHGPRIYFSMSD
notes: Leucine-rich repeat domain of IpaH9.8 of S. flexneri, residues 22–244 as crystallized (the plasmid section says 21–244); Plasmids section gives 21–244, crystallization section 22–244; also called IpaH9.8 LRR domain; IpaH9.8^LRR-Sub
binding result [3]: binds
